Experimental findings from the Human Domainome abundance scans (Beltran et al. 2025) are described below.

To fix the notation:
B1: POU domain, class 3, transcription factor 2, residues 262 to 338; numbered along this chain, P20265 (parent)
chain: EDTPTSDDLEQFAKQFKQRRIKLGFTQADVGLALGTLYGNVFSQTTICRFEALQLSFKNMCKLKPLLNKWLEEADSS

± gives the uncertainty stated by the source.

This series covers variants of B1. As to the kind of experiment: abundance fitness (aPCA) (normalised: wild type 0, dead -1); higher = more abundant; growth selection in yeast, the domain comes from the species named. As to conditions: Homo sapiens.
For the variant N40Q, the abundance fitness is 0.069 ± 0.043.

Regarding N40A, the abundance fitness was -0.055 ± 0.038.

As to N40F, the abundance fitness is -0.173 ± 0.08.

Turning to N40T, the abundance fitness is -0.063 ± 0.051.

L53Y: the abundance fitness was 0.018 ± 0.07.

As for E73D, the abundance fitness stood at 0.06 ± 0.1.

Take E73W: the abundance fitness is -0.076 ± 0.073.

With E73H, the abundance fitness was -0.218 ± 0.27.

Take E73S: the abundance fitness is -0.071 ± 0.068.

Turning to E73L, the abundance fitness is -0.013 ± 0.06.

For the variant E73P, the abundance fitness is -0.416 ± 0.17.

With N68V, the abundance fitness was 0.085 ± 0.077.

For the variant N68W, the abundance fitness is 0.004 ± 0.1.

As to N68R, the abundance fitness is -0.004 ± 0.074.

For the variant N68D, the abundance fitness was -0.182 ± 0.12.

As to N68L, the abundance fitness stood at 0.004 ± 0.07.

Consider N68T, for which the abundance fitness is 0.046 ± 0.085.

Regarding E1T, the abundance fitness was -0.006 ± 0.14.

In the case of E1G, the abundance fitness was -0.031 ± 0.037.

Regarding Q18D, the abundance fitness was -0.068 ± 0.061.

Consider Q18C, for which the abundance fitness is -0.157 ± 0.044.

Regarding Q18I, the abundance fitness was -0.223 ± 0.12.

In the case of Q18P, the abundance fitness was -1.21 ± 0.36.

As for Q18R, the abundance fitness is -0.077 ± 0.032.

For the variant D8H, the abundance fitness is -0.052 ± 0.097.

As to D8P, the abundance fitness is -0.34 ± 0.066.

Take D8T: the abundance fitness is -0.093 ± 0.055.

In the case of P4C, the abundance fitness was 0.108 ± 0.062.

On to P4H, for which the abundance fitness amounted to 0.075 ± 0.06.

As for P4K, the abundance fitness was 0.063 ± 0.052.

Take R49D: the abundance fitness turned out to be 0.006 ± 0.054.

On to R49Y, for which the abundance fitness was -0.499 ± 0.12.

As for L71A, the abundance fitness was -0.504 ± 0.16.

Turning to L71C, the abundance fitness was -0.847 ± 0.37.

Take R20V: the abundance fitness was -0.728 ± 0.059.

For R20N, the abundance fitness was -1.09 ± 0.4.

With R20A, the abundance fitness is -1.05 ± 0.1.

R20I: the abundance fitness is -0.794 ± 0.31.

For R20Q, the abundance fitness was -0.87 ± 0.16.

As for M60W, the abundance fitness is -0.625 ± 0.071.

For M60L, the abundance fitness is -0.282 ± 0.039.

For M60R, the abundance fitness was -0.706 ± 0.047.

In the case of M60N, the abundance fitness is -0.561 ± 0.33.

Turning to D29C, the abundance fitness is -0.542 ± 0.062.

On to D29R, for which the abundance fitness is -0.285 ± 0.028.

As for D29M, the abundance fitness was -0.299 ± 0.048.

For the variant D29H, the abundance fitness was -0.249 ± 0.061.

For the variant D29G, the abundance fitness was -0.239 ± 0.027.

As for T3P, the abundance fitness was -0.205 ± 0.054.

For the variant T3G, the abundance fitness is -0.342 ± 0.03.

With T3A, the abundance fitness was -0.365 ± 0.042.

As to F12W, the abundance fitness is -0.27 ± 0.18.

On to F12R, for which the abundance fitness was -0.401 ± 0.11.

Consider F12A, for which the abundance fitness is -0.283 ± 0.13.

Regarding F12Q, the abundance fitness was -0.828 ± 0.43.

As to F12V, the abundance fitness was -0.442 ± 0.12.

On to T36W, for which the abundance fitness was -0.33 ± 0.046.

Regarding T36L, the abundance fitness was -0.194 ± 0.037.

As to T36Y, the abundance fitness came out at 0.026 ± 0.071.

Regarding T36E, the abundance fitness stood at 0.056 ± 0.033.

For P65R, the abundance fitness is -0.182 ± 0.051.

Consider P65S, for which the abundance fitness was -0.38 ± 0.19.

For P65V, the abundance fitness was -0.082 ± 0.074.

Turning to P65W, the abundance fitness is -0.201 ± 0.092.

With D75N, the abundance fitness was -0.032 ± 0.059.

In the case of D75F, the abundance fitness is -0.3 ± 0.1.

In the case of F42H, the abundance fitness was -0.138 ± 0.096.

In the case of K58M, the abundance fitness was -0.12 ± 0.055.

Consider K58N, for which the abundance fitness turned out to be 0.039 ± 0.18.

Take K58W: the abundance fitness is -0.235 ± 0.044.

With Q44G, the abundance fitness amounted to 0.019 ± 0.025.

Regarding Q44V, the abundance fitness was -0.098 ± 0.03.

Consider Q44P, for which the abundance fitness was found to be 0.023 ± 0.044.

As to Q44R, the abundance fitness is -0.066 ± 0.028.

Turning to Q44A, the abundance fitness turned out to be 0.033 ± 0.031.

Consider L9S, for which the abundance fitness is -0.564 ± 0.049.

On to L9K, for which the abundance fitness is -0.606 ± 0.077.

Regarding L9Y, the abundance fitness was -0.457 ± 0.083.

On to S43V, for which the abundance fitness is -0.703 ± 0.056.

As for S43A, the abundance fitness was -0.209 ± 0.034.

As to S43Y, the abundance fitness was -0.486 ± 0.12.

Regarding S43D, the abundance fitness came out at 0.093 ± 0.048.

On to S43W, for which the abundance fitness was -0.5 ± 0.062.

In the case of S43F, the abundance fitness was -0.57 ± 0.18.

In the case of S43I, the abundance fitness was -0.768 ± 0.19.

As to S43N, the abundance fitness was determined as 0.01 ± 0.054.

As to Q11S, the abundance fitness is -0.046 ± 0.035.

Consider Q11D, for which the abundance fitness is -0.114 ± 0.066.

With Q11Y, the abundance fitness was -0.024 ± 0.063.

Turning to G39L, the abundance fitness was -0.754 ± 0.076.

On to G39V, for which the abundance fitness was -0.897 ± 0.069.

For G39P, the abundance fitness is -0.023 ± 0.046.

G39K: the abundance fitness was -0.219 ± 0.054.

Turning to G39T, the abundance fitness was -0.325 ± 0.047.

Regarding F16Y, the abundance fitness was -0.767 ± 0.15.

As for F16R, the abundance fitness was -0.69 ± 0.04.

Turning to F16W, the abundance fitness is -0.595 ± 0.047.

In the case of D7W, the abundance fitness turned out to be 0.143 ± 0.17.

Take D7G: the abundance fitness worked out at 0.064 ± 0.12.

Take S6C: the abundance fitness turned out to be 0.058 ± 0.042.

On to F50I, for which the abundance fitness is -0.675 ± 0.12.

On to F50A, for which the abundance fitness was -0.763 ± 0.065.

For the variant G35V, the abundance fitness was -0.345 ± 0.035.

As for G35L, the abundance fitness is -0.453 ± 0.039.

With G35H, the abundance fitness is -0.06 ± 0.065.

Take G35P: the abundance fitness is -0.612 ± 0.071.

K17H: the abundance fitness is -0.343 ± 0.067.

Turning to K17R, the abundance fitness is -0.05 ± 0.023.

Consider K17W, for which the abundance fitness was -0.832 ± 0.064.

Take K17M: the abundance fitness is -0.171 ± 0.041.

Regarding K17Q, the abundance fitness is -0.025 ± 0.039.

As to K17G, the abundance fitness was -0.6 ± 0.029.

For R19T, the abundance fitness is -0.049 ± 0.047.

With R19V, the abundance fitness was -0.194 ± 0.033.

For the variant C61M, the abundance fitness was -0.088 ± 0.037.

On to C61K, for which the abundance fitness is -0.056 ± 0.053.

On to C61P, for which the abundance fitness was -0.779 ± 0.086.

Consider C61N, for which the abundance fitness was -0.107 ± 0.075.

Turning to A13V, the abundance fitness was -0.044 ± 0.034.

Regarding A13Q, the abundance fitness was -0.73 ± 0.12.

Consider A13H, for which the abundance fitness is -0.544 ± 0.094.

Consider L23C, for which the abundance fitness was -0.313 ± 0.053.

L23G: the abundance fitness is -0.398 ± 0.045.

Take L23K: the abundance fitness is -0.332 ± 0.052.

As for L23N, the abundance fitness is -0.254 ± 0.083.

With L23T, the abundance fitness is -0.486 ± 0.06.

On to L32V, for which the abundance fitness was -0.448 ± 0.34.

On to L32W, for which the abundance fitness was -0.015 ± 0.17.

Take D2C: the abundance fitness was -0.124 ± 0.049.

With D2E, the abundance fitness was -0.047 ± 0.033.

Take D2I: the abundance fitness was 0.023 ± 0.084.

Consider T5R, for which the abundance fitness was -0.082 ± 0.027.

Turning to T5L, the abundance fitness is -0.041 ± 0.034.

As to T5Y, the abundance fitness is -0.337 ± 0.089.

In the case of T5V, the abundance fitness was -0.108 ± 0.031.

For the variant T5S, the abundance fitness is -0.008 ± 0.032.

As for T5Q, the abundance fitness is -0.082 ± 0.041.

In the case of E51Y, the abundance fitness is -0.999 ± 0.36.

Turning to E51K, the abundance fitness is -0.666 ± 0.096.

Regarding T26K, the abundance fitness was -0.399 ± 0.063.

Regarding T26Q, the abundance fitness is -0.586 ± 0.092.

For T26M, the abundance fitness is -0.705 ± 0.1.

Take T26A: the abundance fitness was -0.417 ± 0.045.

On to A28N, for which the abundance fitness is -0.019 ± 0.079.

Turning to A28P, the abundance fitness was -0.811 ± 0.12.

For the variant A28W, the abundance fitness was -0.301 ± 0.042.

For the variant A28M, the abundance fitness is -0.208 ± 0.048.

In the case of A28T, the abundance fitness is -0.198 ± 0.049.

Consider A28D, for which the abundance fitness was -0.182 ± 0.068.

For A28F, the abundance fitness was -0.452 ± 0.1.

With S76M, the abundance fitness was -0.021 ± 0.045.

With S76G, the abundance fitness came out at 0.004 ± 0.026.

Take S76N: the abundance fitness stood at 0.013 ± 0.05.

Consider S76A, for which the abundance fitness came out at 0.05 ± 0.031.

With S76V, the abundance fitness was 0.01 ± 0.032.

Take S76R: the abundance fitness turned out to be 0.028 ± 0.028.

With S76Q, the abundance fitness stood at 0.055 ± 0.047.

For the variant S76Y, the abundance fitness was -0.14 ± 0.068.

Consider S76I, for which the abundance fitness was -0.153 ± 0.063.

With S76W, the abundance fitness is -0.163 ± 0.034.

As to I47P, the abundance fitness was -1.02 ± 0.19.

As to I47H, the abundance fitness is -0.65 ± 0.16.

On to I47E, for which the abundance fitness was -0.772 ± 0.074.

As to I47L, the abundance fitness was -0.267 ± 0.039.

As to K22V, the abundance fitness was -0.298 ± 0.033.

Regarding K22A, the abundance fitness stood at 0.009 ± 0.03.

In the case of K22Q, the abundance fitness is -0.028 ± 0.043.
